Reference: the supplement of paper PMC10567573

B1: TSPAN10 (parent)
chain: EGCGPPLRRWLRANLAASGGYAIA

Variants of: B1
Experiment: protein stability index of a GFP-peptide fusion (GPS, HEK-293T) (PSI 1-6); higher = more stable
Settings: c terminus: a fixed tail appended
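Also: lentivirally expressed fusions sorted by FACS into six bins by GFP to DsRed ratio, PSI derived from sequencing read proportions per bin multiplied by bin number.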

Protein stability index of substitutions, site by site:
A16: N 2.5; S 1.68; M 2.98; T 1.63; I 1.96; K 2.31; Q 1.57; L 1.53; V 1.65; G 1.71; H 2.13; W 1.45; D 2.12; Y 1.48; E 2.58; C 1.78; R 1.68
N14: R 1.74; K 2.81; H 2.48; T 1.86; Q 1.39; E 1.47; W 1.83; F 1.92; L 1.02; A 2.3; D 1.86; I 1.05; P 2.06; G 2.24; Y 1.46; M 2.08; S 1.93
L7: C 1.87; P 2.27; K 1.97; R 3.1; N 2.67; H 2.39; I 1.39; S 2.29; A 1.91; W 2.05; V 2.3; G 1.82; D 2.33; Y 2; T 2.97; F 1.4; Q 1.36; E 1.78; M 2.39
G2: Y 1.69; W 2; V 1.53
W10: F 1.61; I 2.94; A 3.63; N 2.55; K 2.09; L 2.42; H 2.53; D 3.25; M 2.62; G 3.35; P 3.39; E 3.4; C 2.03; V 1.89; Y 2.44; S 2.81; R 3.5; Q 2.24; T 3.01
G19: Y 1.93; W 3.26; N 2.13; V 1.67; T 1.74; A 1.11; M 1.24; L 2.17; D 2.11; I 1.93; S 2.58; Q 1.43; K 1.89; E 1.84; P 2.13; R 2.33; F 1.79; C 1.46; H 2.32
R9: N 2.72; H 1.58; W 1; I 2.9; C 1.29; Y 2.29; M 1.65; K 1.79; Q 1.81; S 2.33; V 1.65; E 2.28; L 1.05; T 1.7; A 1.55; G 1.25; P 2.54; D 1.9
L11: T 2.89; S 2.61; Y 1.9; D 2.12; H 2.94; V 1.82; P 2.65; Q 3.13; R 2.56; G 1.74; W 1.5; K 2.43; I 1.91; F 1.03; E 2.57; M 2.51; C 1.68; A 2.55
G4: T 2.5; E 1.98; W 2.15; P 2.04; R 2.44; V 2.25; Q 2; N 2.06; D 2.1; S 2.09; F 1.27; M 1.83; K 2.31; C 1.32; H 2.58; L 1.58; Y 1.83; I 2.28; A 1.54
L15: Y 1.92; F 1.58; N 2.28; G 2.59; R 3.06; V 2.07; C 1.49; D 2.81; E 2.96; T 1.95; Q 3.2; I 1.93; S 2.94; P 2.14; A 2.36; M 2.16; K 2.53; H 2.62
